T1: human IL-17A (construct not stated) (human, UniProt Q16552 24-155, limits assumed)
T1 construct: also called huIL-17A; human IL-17A biotin
T1 sequence: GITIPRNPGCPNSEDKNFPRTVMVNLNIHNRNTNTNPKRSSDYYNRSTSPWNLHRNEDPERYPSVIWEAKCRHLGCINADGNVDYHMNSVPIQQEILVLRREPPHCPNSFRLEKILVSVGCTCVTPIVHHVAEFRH


Columns and labels:
[1] = molecular target: T1, human IL-17A (construct not stated); experiment: ELISA on coated huIL-17A, crude Fab extract, wash of at least 3 h
[2] = molecular target: T1, human IL-17A (construct not stated); experiment: ELISA on coated huIL-17A, crude Fab extract
[3] = molecular target: T1, human IL-17A (construct not stated); experiment: ELISA on coated huIL-17A, crude Fab extract, overnight with 200 nM XAB1 Fab as competitor

Row | Binder | Off-rate ELISA (normalized to XAB1 Fab) [1] | Classic ELISA (normalized to XAB1 Fab) [2] | Competition ELISA (normalized to XAB1 Fab) [3]
1 | MB454 (Fab, V domains shown, 32 stays A); heavy chain C-terminal Flag tag) VH: EVQLVESGGDLVQPGGSLRLSCAASGFTFSSYWMSWVRQAPGKGLEWVANIKQDGSEKYYVDSVKGRFTISRDNAKNSLYLQMNSLRAEDTAVYYCARDRGSLYYWGQGTLVTVSS VL: AIQLTQSPSSLSASVGDRVTITCRPSQGILWALAWYQQKPGKAPKLLIYDASSLENGVPSRFSGSGSGTDFTLTISSLQPEDFATYYCQQFNSYPLTFGGGTKVEIK | 34.2 ratio to XAB1 Fab | 2.9 ratio to XAB1 Fab | 36.6 ratio to XAB1 Fab
2 | MB434 (Fab, V domains shown, heavy chain C-terminal Flag tag) VH: EVQLVESGGDLVQPGGSLRLSCAASGFTFSSYWMSWVRQAPGKGLEWVANIKQDGSEKYYVDSVKGRFTISRDNAKNSLYLQMNSLRAEDTAVYYCARDRGSLYYWGQGTLVTVSS VL: AIQLTQSPSSLSASVGDRVTITCRPSQGIWWYLAWYQQKPGKAPKLLIYDASSLENGVPSRFSGSGSGTDFTLTISSLQPEDFATYYCQQFNSYPLTFGGGTKVEIK | 44.4 ratio to XAB1 Fab | 2.4 ratio to XAB1 Fab | 39.5 ratio to XAB1 Fab
3 | MB486 (Fab, V domains shown, heavy chain C-terminal Flag tag) VH: EVQLVESGGDLVQPGGSLRLSCAASGFTFSSYWMSWVRQAPGKGLEWVANIKQDGSEKYYVDSVKGRFTISRDNAKNSLYLQMNSLRAEDTAVYYCARDRGSLYYWGQGTLVTVSS VL: AIQLTQSPSSLSASVGDRVTITCRPSQGIWWMLAWYQQKPGKAPKLLIYDASSLENGVPSRFSGSGSGTDFTLTISSLQPEDFATYYCQQFNSYPLTFGGGTKVEIK | 58.5 ratio to XAB1 Fab | 1.9 ratio to XAB1 Fab | 64.9 ratio to XAB1 Fab
4 | MB456 (Fab, V domains shown, heavy chain C-terminal Flag tag) VH: EVQLVESGGDLVQPGGSLRLSCAASGFTFSSYWMSWVRQAPGKGLEWVANIKQDGSEKYYVDSVKGRFTISRDNAKNSLYLQMNSLRAEDTAVYYCARDRGSLYYWGQGTLVTVSS VL: AIQLTQSPSSLSASVGDRVTITCRPSQGILWHLAWYQQKPGKAPKLLIYDASSLENGVPSRFSGSGSGTDFTLTISSLQPEDFATYYCQQFNSYPLTFGGGTKVEIK | 45.1 ratio to XAB1 Fab | 2.4 ratio to XAB1 Fab | 46.7 ratio to XAB1 Fab
5 | MB438 (Fab, V domains shown, 32 stays A); heavy chain C-terminal Flag tag) VH: EVQLVESGGDLVQPGGSLRLSCAASGFTFSSYWMSWVRQAPGKGLEWVANIKQDGSEKYYVDSVKGRFTISRDNAKNSLYLQMNSLRAEDTAVYYCARDRGSLYYWGQGTLVTVSS VL: AIQLTQSPSSLSASVGDRVTITCRPSQGIPYALAWYQQKPGKAPKLLIYDASSLENGVPSRFSGSGSGTDFTLTISSLQPEDFATYYCQQFNSYPLTFGGGTKVEIK | 41.5 ratio to XAB1 Fab | 2.7 ratio to XAB1 Fab | 41.1 ratio to XAB1 Fab
6 | MB447 (Fab, V domains shown, heavy chain C-terminal Flag tag) VH: EVQLVESGGDLVQPGGSLRLSCAASGFTFSSYWMSWVRQAPGKGLEWVANIKQDGSEKYYVDSVKGRFTISRDNAKNSLYLQMNSLRAEDTAVYYCARDRGSLYYWGQGTLVTVSS VL: AIQLTQSPSSLSASVGDRVTITCRPSQGIFWWLAWYQQKPGKAPKLLIYDASSLENGVPSRFSGSGSGTDFTLTISSLQPEDFATYYCQQFNSYPLTFGGGTKVEIK | 45.5 ratio to XAB1 Fab | 3 ratio to XAB1 Fab | 57 ratio to XAB1 Fab
7 | MB448 (Fab, V domains shown, heavy chain C-terminal Flag tag) VH: EVQLVESGGDLVQPGGSLRLSCAASGFTFSSYWMSWVRQAPGKGLEWVANIKQDGSEKYYVDSVKGRFTISRDNAKNSLYLQMNSLRAEDTAVYYCARDRGSLYYWGQGTLVTVSS VL: AIQLTQSPSSLSASVGDRVTITCRPSQGIVWMLAWYQQKPGKAPKLLIYDASSLENGVPSRFSGSGSGTDFTLTISSLQPEDFATYYCQQFNSYPLTFGGGTKVEIK | 40.4 ratio to XAB1 Fab | 2.9 ratio to XAB1 Fab | 51.5 ratio to XAB1 Fab
8 | MB450 (Fab, V domains shown, heavy chain C-terminal Flag tag) VH: EVQLVESGGDLVQPGGSLRLSCAASGFTFSSYWMSWVRQAPGKGLEWVANIKQDGSEKYYVDSVKGRFTISRDNAKNSLYLQMNSLRAEDTAVYYCARDRGSLYYWGQGTLVTVSS VL: AIQLTQSPSSLSASVGDRVTITCRPSQGIMWWLAWYQQKPGKAPKLLIYDASSLENGVPSRFSGSGSGTDFTLTISSLQPEDFATYYCQQFNSYPLTFGGGTKVEIK | 41.5 ratio to XAB1 Fab | 2.9 ratio to XAB1 Fab | 53.3 ratio to XAB1 Fab
9 | MB432 (Fab, V domains shown, 32 stays A); heavy chain C-terminal Flag tag) VH: EVQLVESGGDLVQPGGSLRLSCAASGFTFSSYWMSWVRQAPGKGLEWVANIKQDGSEKYYVDSVKGRFTISRDNAKNSLYLQMNSLRAEDTAVYYCARDRGSLYYWGQGTLVTVSS VL: AIQLTQSPSSLSASVGDRVTITCRPSQGILFALAWYQQKPGKAPKLLIYDASSLENGVPSRFSGSGSGTDFTLTISSLQPEDFATYYCQQFNSYPLTFGGGTKVEIK | 44.2 ratio to XAB1 Fab | 2.3 ratio to XAB1 Fab | 37.3 ratio to XAB1 Fab
10 | MB457 (Fab, V domains shown, 30 stays I); heavy chain C-terminal Flag tag) VH: EVQLVESGGDLVQPGGSLRLSCAASGFTFSSYWMSWVRQAPGKGLEWVANIKQDGSEKYYVDSVKGRFTISRDNAKNSLYLQMNSLRAEDTAVYYCARDRGSLYYWGQGTLVTVSS VL: AIQLTQSPSSLSASVGDRVTITCRPSQGIIWSLAWYQQKPGKAPKLLIYDASSLENGVPSRFSGSGSGTDFTLTISSLQPEDFATYYCQQFNSYPLTFGGGTKVEIK | 34.7 ratio to XAB1 Fab | 2.7 ratio to XAB1 Fab | 41 ratio to XAB1 Fab
11 | MB483 (Fab, V domains shown, heavy chain C-terminal Flag tag) VH: EVQLVESGGDLVQPGGSLRLSCAASGFTFSSYWMSWVRQAPGKGLEWVANIKQDGSEKYYVDSVKGRFTISRDNAKNSLYLQMNSLRAEDTAVYYCARDRGSLYYWGQGTLVTVSS VL: AIQLTQSPSSLSASVGDRVTITCRPSQGIFWTLAWYQQKPGKAPKLLIYDASSLENGVPSRFSGSGSGTDFTLTISSLQPEDFATYYCQQFNSYPLTFGGGTKVEIK | 47.1 ratio to XAB1 Fab | 3.1 ratio to XAB1 Fab | 45.2 ratio to XAB1 Fab
12 | MB458 (Fab, V domains shown, heavy chain C-terminal Flag tag) VH: EVQLVESGGDLVQPGGSLRLSCAASGFTFSSYWMSWVRQAPGKGLEWVANIKQDGSEKYYVDSVKGRFTISRDNAKNSLYLQMNSLRAEDTAVYYCARDRGSLYYWGQGTLVTVSS VL: AIQLTQSPSSLSASVGDRVTITCRPSQGIWYQLAWYQQKPGKAPKLLIYDASSLENGVPSRFSGSGSGTDFTLTISSLQPEDFATYYCQQFNSYPLTFGGGTKVEIK | 33 ratio to XAB1 Fab | 2.7 ratio to XAB1 Fab | 42.1 ratio to XAB1 Fab
13 | MB461 (Fab, V domains shown, heavy chain C-terminal Flag tag) VH: EVQLVESGGDLVQPGGSLRLSCAASGFTFSSYWMSWVRQAPGKGLEWVANIKQDGSEKYYVDSVKGRFTISRDNAKNSLYLQMNSLRAEDTAVYYCARDRGSLYYWGQGTLVTVSS VL: AIQLTQSPSSLSASVGDRVTITCRPSQGIYWTLAWYQQKPGKAPKLLIYDASSLENGVPSRFSGSGSGTDFTLTISSLQPEDFATYYCQQFNSYPLTFGGGTKVEIK | 49.8 ratio to XAB1 Fab | 2.9 ratio to XAB1 Fab | 62.8 ratio to XAB1 Fab
14 | MB491 (Fab, V domains shown, heavy chain C-terminal Flag tag) VH: EVQLVESGGDLVQPGGSLRLSCAASGFTFSSYWMSWVRQAPGKGLEWVANIKQDGSEKYYVDSVKGRFTISRDNAKNSLYLQMNSLRAEDTAVYYCARDRGSLYYWGQGTLVTVSS VL: AIQLTQSPSSLSASVGDRVTITCRPSQGIFFWLAWYQQKPGKAPKLLIYDASSLENGVPSRFSGSGSGTDFTLTISSLQPEDFATYYCQQFNSYPLTFGGGTKVEIK | 43 ratio to XAB1 Fab | 2.1 ratio to XAB1 Fab | 44.2 ratio to XAB1 Fab
15 | MB453 (Fab, V domains shown, heavy chain C-terminal Flag tag) VH: EVQLVESGGDLVQPGGSLRLSCAASGFTFSSYWMSWVRQAPGKGLEWVANIKQDGSEKYYVDSVKGRFTISRDNAKNSLYLQMNSLRAEDTAVYYCARDRGSLYYWGQGTLVTVSS VL: AIQLTQSPSSLSASVGDRVTITCRPSQGIVFWLAWYQQKPGKAPKLLIYDASSLENGVPSRFSGSGSGTDFTLTISSLQPEDFATYYCQQFNSYPLTFGGGTKVEIK | 43.3 ratio to XAB1 Fab | 2.7 ratio to XAB1 Fab | 46.4 ratio to XAB1 Fab
16 | MB433 (Fab, V domains shown, heavy chain C-terminal Flag tag) VH: EVQLVESGGDLVQPGGSLRLSCAASGFTFSSYWMSWVRQAPGKGLEWVANIKQDGSEKYYVDSVKGRFTISRDNAKNSLYLQMNSLRAEDTAVYYCARDRGSLYYWGQGTLVTVSS VL: AIQLTQSPSSLSASVGDRVTITCRPSQGIYWGLAWYQQKPGKAPKLLIYDASSLENGVPSRFSGSGSGTDFTLTISSLQPEDFATYYCQQFNSYPLTFGGGTKVEIK | 39.7 ratio to XAB1 Fab | 2.3 ratio to XAB1 Fab | 29.3 ratio to XAB1 Fab
